From paper PMC3896448 (2014)
Substitutions are numbered along the chain they refer to.

B1: OBody AM1L10 (designed binder)
chain: AMGSVYPKKTHWTAEITPNLHGTEVVVAGWVASLGDYGRVKIVKVSDREGGAAVSVYLEYGKTPDHLFKVFAELSREDVVVIKGIVEASKAAADMHNGVEIFPSEIWILNKAK
B2: OBody AM3L15 (designed binder)
chain: VSPKKTHWTAEITPNLHGSEVVVAGWVAHLGDYGRVKIVKVSDREGGAAVPVYLERGKTPDHLFKVFAELSREDVVVIKGIVEAGWPVALDTGVEIFPSEIWILNKAKPLPID
B3: OBody AM1L200 (designed binder)
chain: B2 chain with S2Y, S19T, K37M, G85S, W86K, P87Q, V88Y, A89G, L90S
B4: OBody AM3L09 (designed binder)
chain: B2 chain with G85T, W86T, P87V, V88T, A89R, L90W

Tests used:
[1] = target: T1, hen egg-white lysozyme (hen (egg-white), UniProt P00698 19-147)
T1 sequence (P00698 19-147): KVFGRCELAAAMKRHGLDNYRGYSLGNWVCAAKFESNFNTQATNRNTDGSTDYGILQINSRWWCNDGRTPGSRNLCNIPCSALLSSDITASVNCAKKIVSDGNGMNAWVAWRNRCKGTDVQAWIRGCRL

[2] = target: T1, hen egg-white lysozyme; assay: SPR

Binder	Kd [1] [nM]	koff [2] [s⁻¹]
B1	4600	
B2		0.0256
B3	1200	
B4		0.00249
